Measured values from patent publication US20220073883A1, “COMPOSITIONS AND METHODS FOR GENERATION OF HEART FIELD-SPECIFIC PROGENITOR CELLS” (The Johns Hopkins University, priority 2018, published 2022).
Entries after “also recorded” stand apart in the source; their conditions may differ.

B1: Wnt5A: Wnt protein (noncanonical) (protein, UniProt P41221 62-380, looked up)
Protein Wnt-5a: IIGAQPLCSQLAGLSQGQKKLCHLYQDHMQYIGEGAKTGIKECQYQFRHRRWNCSTVDNTSVFGRVMQIGSRETAFTYAVSAAGVVNAMSRACREGELSTCGCSRAARPKDLPRDWLWGGCGDNIDYGYRFAKEFVDARERERIHAKGSYESARILMNLHNNEAGRRTVYNLADVACKCHGVSGSCSLKTCWLQLADFRKVGDALKEKYDSAAAMRLNSRGKLVQVNSRFNSPTTQDLVYIDPSPDYCVRNESTGSLGTQGRLCNKTSEGMDGCELMCCGRGYDQFKTVQTERCHCKFHWCCYVKCKKCTEIVDQFVCK
B2: Wnt3A: Wnt protein (canonical) (protein, UniProt P56704 19-352, looked up)
Protein Wnt-3a: SYPIWWSLAVGPQYSSLGSQPILCASIPGLVPKQLRFCRNYVEIMPSVAEGIKIGIQECQHQFRGRRWNCTTVHDSLAIFGPVLDKATRESAFVHAIASAGVAFAVTRSCAEGTAAICGCSSRHQGSPGKGWKWGGCSEDIEFGGMVSREFADARENRPDARSAMNRHNNEAGRQAIASHMHLKCKCHGLSGSCEVKTCWWSQPDFRAIGDFLKDKYDSASEMVVEKHRESRGWVETLRPRYTYFKVPTERDLVYYEASPNFCEPNPETGSFGTRDRTCNVSSHGIDGCDLLCCGRGHNARAERRREKCRCVFHWCCYVSCQECTRVYDVHTCK
B3: Activin A: TGF-β protein; key ligand for Activin/TGF signaling (protein, UniProt P08476 311-426, looked up)
Inhibin beta A chain: GLECDGKVNICCKKQFFVSFKDIGWNDWIIAPSGYHANYCEGECPSHIAGTSGSSLSFHSTVINHYRMRGHSPFANLKSCCVPTKLRPMSMLYYDDGQNIIKKDIQNMIVEECGCS
modifications: Inhibin beta A chain
B4: Wnt11: Wnt protein (noncanonical) (protein, UniProt O96014 25-354, looked up)
Protein Wnt-11: IKWLALSKTPSALALNQTQHCKQLEGLVSAQVQLCRSNLELMHTVVHAAREVMKACRRAFADMRWNCSSIELAPNYLLDLERGTRESAFVYALSAAAISHAIARACTSGDLPGCSCGPVPGEPPGPGNRWGGCADNLSYGLLMGAKFSDAPMKVKKTGSQANKLMRLHNSEVGRQALRASLEMKCKCHGVSGSCSIRTCWKGLQELQDVAADLKTRYLSATKVVHRPMGTRKHLVPKDLDIRPVKDSELVYLQSSPDFCMKNEKVGSHGTQDRQCNKTSNGSDSCDLMCCGRGYNPYTDRVVERCHCKYHWCCYVTCRRCERTVERYVCK
B5: Noggin: blocks Bmps from binding their receptors (protein, UniProt Q13253 28-232, looked up)
Noggin: QHYLHIRPAPSDNLPLVDLIEHPDPIFDPKEKDLNETLLRSLLGGHYDPGFMATSPPEDRPGGGGGAAGGAEDLAELDQLLRQRPSGAMPSEIKGLEFSEGLAQGKKQRLSKKLRRKLQMWLWSQTFCPVLYAWNDLGSRFWPRYVKVGSCFSKRSCSVPEGMVCKPSKSVHLTVLRWRCQRRGGQRCGWIPIQYPIISECKCSC

Experiments:
Type in all cases: cell-based, mouse
[1] = test system: canonical Wnt activity; test: Topflash luciferase assay; conditions: in combination with Bmp4 (1.25 ng/ml); 88 h of differentiation
Method: To test this, canonical Wnt activity was measured with its readout Topflash.
For Tbx1 and Tbx5 knockdown experiments, Tbx1 and Tbx5 ON-TARGETplus SMARTpool siRNA or scrambled siRNA (Dharmacon/Thermo Fisher Scientic) was used at 5 nM for cell transfection. Cells were transfected with Lipofectamine LTX (Life Technologies) in single-cell suspensions. For TOP-flash luciferase assays, mESCs were transfected with Topflash constructs and Renilla constructs and analyzed as previously described 5.

[2] = test system: ESC-derived cardiac spheroids (Hcn4-GFP; Tbx1-Cre; Ai9); test: heart field specification: Hcn4-GFP+ and Tbx1-Cre, RFP+ CPCs in cardiac spheroids by FACS at day 5.5; conditions: for Bmp4-mediated induction of RFP+ cells (SHF) / Bmp4-mediated induction of GFP+ cells (FHF): in combination with Bmp4 (1.25 ng/ml), Noggin 100 ng/ml, dorsomorphin, K2288, DMH1 100 nM; for Bmp4-mediated induction of RFP+ cells (SHF): IWP-2 0.5 μM; for induction of GFP+ cells (FHF) / induction of RFP+ cells (SHF): increasing levels of the factor, day 5.5
Description: (§1) Next, an embryonic stem cell (ESC) line (ESCHcn4-GFP; Tbx1-Cre Ai9) was established from the mice to determine if heart field specification can be recapitulated in a PSC system. It was hypothesized that a 3D multicellular system would better resemble heart field development in vivo, as early development is a highly dynamic process that involves tissue-tissue interactions between multiple cell types. Since CPCs are specified during mid-late gastrulation 7, 8, multicellular 3D spheroids were generated with the PSCs and treated them with various concentrations of Activin A and Bmp4 to determine whether induction of the early mesoderm influences heart field specification (FIGS. 1C and 1D).
IPA utilizes an input gene list and a curated database of literature-derived pathways to infer which canonical pathways are most significant to the input data set. The analysis was focused on pathways related to ‘organism growth and development’. […] The effect of Bmp signals was evaluated during heart field specification. In order to minimize the possibility of influencing heart field cells after induction, all of the data were analyzed within 12 hs after the appearance of GFP^+/RFP^+ cells.
(§2) Mouse ESCs and human iPSCs were maintained and differentiated as previously described^5, 43, 68 Briefly, mESCs were maintained on gelatin-coated dishes in maintenance medium (Glasgow minimum essential medium supplemented with 10% fetal bovine serum and […] Chir99021 and 1 μM PD98059 or 1000 U/ml ESGRO (Millipore, Billerica, Mass.), Glutamax, sodium pyruvate, MEM non-essential amino acids (Thermo Fisher Scientific). For spheroid formation and differentiation, mouse ESCs were plated in IMDM/Ham's F12 (Cellgro) (3:1) supplemented with N2, B27, penicillin/streptomycin, 2 mM GlutaMAX, 0.05% BSA, 5 ng/ml L-ascorbic acid (Sigma-Aldrich) and α-monothioglycerol (MTG; Sigma-Aldrich) at a final density of 100,000 cells/ml to allow spheroid formation. After 48 h spheroids were collected and transferred to ultra-low attachment plastic surface and induced for 40 hours with Activin A, Bmp4, Wnt3A, Wnt5A, Wnt11 (R&D Systems) alone or in combination. Human iPSCs were maintained in Geltrex-coated T25 flasks using Essential 8 medium. For spheroid formation and differentiation, hiPSCs were plated in RPMI plus B27 minus insulin with Bmp4 and CHIR99021 and incubated for 48 h. After 48 h media was changed to RPMI plus B27 minus insulin. The hiPSC line used in this study was developed by Dr. Linzhao Cheng, the Johns Hopkins University, and had was generated from a de-identified patient using an approved IRB protocol.
(§3) Mouse embryos (E7.75) were dissected using forceps under a stereomicroscope (Zeiss) and regions of interest were dissociated and harvested using TrypLE. Embryoid bodies (EBs) and cells were dissociated and harvested using TrypLE. Single-cells were analyzed for RFP/GFP expression or sorted using a SH800 Cell sorter (Sony Biotechnologies). Live cells were analyzed for RFP and GFP expression and stained with antibodies targeting for the presence of appropriate markers. […] Data was analyzed using FlowJo software.

[3] = test system: ESC-derived cardiac spheroids; test: qPCR of FHF (tbx5, hcn4) and SHF (tbx1, fgf10) markers in treated spheroids; conditions: in combination with Bmp4 (1.25 ng/ml), Wnts 100 ng/ml, dorsomorphin, K2288, DMH1 100 nM; for expression of SHF markers (tbx1, fgf10): IWP-2 0.5 μM
Method: To investigate the crosstalk between Bmp and Wnt signals, the spheroids were treated with Bmp4 and Wnts in combinations and analyzed expression levels of FHF (tbx5, hcn4) and SHF (tbx1, fgf10) markers.
as §2
RNA isolation was performed using either RNeasy Micro Kit (Cat #74004, Qiagen) or […]® PicoPure® RNA Isolation Kit following the manufacturer's instructions, and cDNA was generated using the high-capacity cDNA reverse transcription kit (Applied Biosystems). qPCR reactions were performed using the Taqman (Applied Biosystems) or Sybr Select qPCR mix (Thermo Fisher) with indicated primers. Gene expression levels were normalized to Gapdh. For the clonal cell-fate analysis, single Isl1-Cre RFP+, Cxcr4− and Isl1-Cre RFP^+, Cxcr4^+ cells were sorted at day 5.5 into 384-well plates and allowed to grow and differentiate for 7 days. […] RNA was isolated from 24 wells with colonies from Cxcr4− and Cxcr4+ sorted cells, respectively. Ct values<30 were considered positive. All samples were also analyzed for gapdh to exclude false-positive results.

[4] = test system: ESC-derived cardiac spheroids; test: cardiogenesis: cTnT+ cardiomyocytes in cardiac spheroids at day 9 (flow cytometry); conditions: varying/increasing concentrations; cTnT+ at day 9
Description: as §1, with “1D). After 5 days of differentiation (120 h), GFP+ and RFP+ cells started to appear in the spheroids. The spheroids were analyzed for GFP+ and RFP+ cells by fluorescent activated cell sorting (FACS) at day 5.5 (132 h). […] The double positive GFP+/RFP+ cells correlated with the total number of GFP+ and RFP+ cells (FIG. 6J) and were sporadically interspersed within the GFP+ domain (FIG. 6K).” for “1D).”
The overall effects on cardiogenesis were evaluated by analyzing the number of cardiomyocytes at day 9 (FIG. 6L).
as §2, with “After 48 h media was changed to RPMI plus B27 minus insulin. The hiPSC line used in this study was developed by Dr. Linzhao Cheng, the Johns Hopkins University, and had was generated from a de-identified patient using an approved IRB protocol.” left out
as §3, with “Embryoid bodies (EBs) and cells were dissociated and harvested using TrypLE.” left out

Molecule	topflash / Wnt activity [1]	Bmp4-mediated induction of RFP+ cells (SHF) [2]	Bmp4-mediated induction of GFP+ cells (FHF) [2]	expression of SHF markers (tbx1, fgf10) [3]	expression of FHF markers (tbx5, hcn4) [3]	induction of GFP+ cells (FHF) [2]	induction of RFP+ cells (SHF) [2]	effect on cardiogenesis [4]
c1cc(-c2cnn3cc(-c4ccc(OCCN5CCCCC5)cc4)cnc23)ccn1 [dorsomorphin, reference compound]	no effect							
COc1cc(-c2cc(-c3cccc(O)c3)cnc2N)cc(OC)c1OC [K2288, reference compound]	without significantly affecting	without significantly affecting	suppressed	without significantly affecting	suppressed			
Cc1ccc2nc(NC(=O)CSc3nc4c(c(=O)n3-c3ccccc3)SCC4)sc2c1 [IWP-2, reference compound]		abolished		suppressed				
CC(C)Oc1ccc(-c2cnc3c(-c4ccnc5ccccc45)cnn3c2)cc1 [DMH1, reference compound]	without significantly affecting	without significantly affecting	suppressed	without significantly affecting	suppressed			
B1				overall reduction	overall reduction			
B2	further increased			further increase	reduction	did not affect	increased numbers	
B3						no apparent effect; also recorded: no overall effect	no apparent effect; also recorded: no overall effect	modest effect; also recorded: did not have a significant effect
B4				overall reduction	overall reduction			
B5	markedly reduced; also recorded: inhibition	abolished	abolished					
